doi:10.1101/2025.05.14.654016, “Phosphatase activity is dispensable for PRL-3-mediated oncogenesis and tumor progression” (bioRxiv, 2025)

Columns and labels:
Details in all cases: both partners purified
[1] = molecular target: T1, recombinant full-length human PRL-3 (human, UniProt O75365 1-173); test: co-IP; in vitro, purified proteins: HA-CBS or HA-CBS-mScarlet3 (2.5 μM) on HA-Tag magnetic beads; equimolar PRL-3 or LSSmGFP-PRL3.C104D with 1 mM TCEP, pre-incubated with 50 μM test compounds or DMSO; 25 mM Tris-HCl pH 7.4, 150 mM NaCl, 1% NP-40, 5% glycerol; room temperature
T1 construct: full-length human PRL-3 cloned into pSKB3 (modified pET-28b with a TEV site); also called purified PRL-3; non-fluorescent PRL-3; source: E. coli BL21 Star DE3, purified (Ni-NTA, TEV cleavage, second Ni-NTA, Superdex 200)

[2] = molecular target: T2, LSSmGFP-PRL-3.C104D (human, UniProt O75365 1-173, C104D); test: as above
T2 construct: full-length PRL-3 with C104D, joined to LSSmGFP at its N-terminus by a glycine/serine linker; also called FRET donor; source: E. coli BL21 Star DE3, purified (Ni-NTA, TEV cleavage, second Ni-NTA, Superdex 200); not shown: LSSmGFP, N-terminal, kept

[3] = molecular target: T2, LSSmGFP-PRL-3.C104D; test: FRET or BRET; in vitro FRET of purified proteins, LSSmGFP-PRL-3 C104D with increasing concentrations of HA-CBS-mScarlet3; excitation 400 nm, emission 600 nm

T2 sequence (O75365 whole entry C104D): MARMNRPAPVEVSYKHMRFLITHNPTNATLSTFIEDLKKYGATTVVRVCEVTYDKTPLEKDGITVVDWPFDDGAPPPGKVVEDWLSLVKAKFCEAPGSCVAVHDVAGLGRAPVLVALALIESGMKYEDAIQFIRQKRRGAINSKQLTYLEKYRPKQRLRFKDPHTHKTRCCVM
T1 sequence (O75365 whole entry): as the sequence (O75365 whole entry C104D) above, with D104C counted along it

Binder | binding result [1] | binding result [2] | binding result [3]
HA-CBS (CBS domain of CNNM3, residues Y301-D451, with an N-terminal HA tag) (domain or fragment, UniProt Q8NE01-1 301-451, looked up, also called purified CBS domain; unlabelled HA-CBS; source: E. coli BL21 Star DE3, purified (Ni-NTA, TEV cleavage, second Ni-NTA, Superdex 200); not shown: HA, N-terminal, kept) YSDLSKGVLRCRTVEDVLTPLEDCFMLDASTVLDFGVLASIMQSGHTRIPVYEEERSNIVDMLYLKDLAFVDPEDCTPLSTITRFYNHPLHFVFNDTKLDAVLEEFKRGKSHLAIVQKVNNEGEGDPFYEVLGLVTLEDVIEEIIRSEILD | binds | binds | –
HA-CBS-mScarlet3 (domain or fragment, UniProt Q8NE01-1 301-451, looked up, CBS domain of CNNM3, residues Y301-D451, joined to mScarlet3 at its C-terminus by a glycine/serine linker; also called FRET acceptor; source: E. coli BL21 Star DE3, purified (Ni-NTA, TEV cleavage, second Ni-NTA, Superdex 200); not shown: HA, N-terminal, kept; mScarlet3, C-terminal, kept) YSDLSKGVLRCRTVEDVLTPLEDCFMLDASTVLDFGVLASIMQSGHTRIPVYEEERSNIVDMLYLKDLAFVDPEDCTPLSTITRFYNHPLHFVFNDTKLDAVLEEFKRGKSHLAIVQKVNNEGEGDPFYEVLGLVTLEDVIEEIIRSEILD | binds | – | binds
